# T1: 重组mfIL1RAP aa21-367 (食蟹猴 (Macaca fascicularis), UniProt A0A2K5X5J5 21-367)
# T1 construct: also called 食蟹猴(cyno)IL1RAP
# T1 sequence: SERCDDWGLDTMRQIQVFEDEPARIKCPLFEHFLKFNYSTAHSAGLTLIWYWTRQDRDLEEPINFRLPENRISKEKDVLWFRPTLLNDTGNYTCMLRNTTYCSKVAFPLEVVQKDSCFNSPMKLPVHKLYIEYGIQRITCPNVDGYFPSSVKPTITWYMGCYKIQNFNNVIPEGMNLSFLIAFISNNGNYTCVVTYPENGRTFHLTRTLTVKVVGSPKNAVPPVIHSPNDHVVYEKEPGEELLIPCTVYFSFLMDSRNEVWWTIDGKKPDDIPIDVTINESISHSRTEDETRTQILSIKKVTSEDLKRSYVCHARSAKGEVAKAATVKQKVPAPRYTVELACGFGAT
# T2: 大鼠IL1RAP (褐家鼠 (Rattus norvegicus), UniProt Q63621 21-367, limits assumed)
# T2 construct: also called rnIL1RAP
# T2 sequence (looked up): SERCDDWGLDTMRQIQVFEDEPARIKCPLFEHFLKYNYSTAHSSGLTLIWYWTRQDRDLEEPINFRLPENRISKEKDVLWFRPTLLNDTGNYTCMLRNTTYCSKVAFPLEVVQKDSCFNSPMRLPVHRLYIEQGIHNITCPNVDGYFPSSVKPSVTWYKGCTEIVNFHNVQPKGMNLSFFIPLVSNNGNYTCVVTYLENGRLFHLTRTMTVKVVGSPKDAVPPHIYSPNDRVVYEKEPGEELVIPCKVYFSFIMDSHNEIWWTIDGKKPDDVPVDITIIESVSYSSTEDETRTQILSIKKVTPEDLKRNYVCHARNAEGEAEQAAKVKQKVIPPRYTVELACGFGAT
# T3: 小鼠IL1RAP (小家鼠 (Mus musculus), UniProt Q61730 21-367, limits assumed)
# T3 construct: also called mIL1RAP
# T3 sequence (looked up): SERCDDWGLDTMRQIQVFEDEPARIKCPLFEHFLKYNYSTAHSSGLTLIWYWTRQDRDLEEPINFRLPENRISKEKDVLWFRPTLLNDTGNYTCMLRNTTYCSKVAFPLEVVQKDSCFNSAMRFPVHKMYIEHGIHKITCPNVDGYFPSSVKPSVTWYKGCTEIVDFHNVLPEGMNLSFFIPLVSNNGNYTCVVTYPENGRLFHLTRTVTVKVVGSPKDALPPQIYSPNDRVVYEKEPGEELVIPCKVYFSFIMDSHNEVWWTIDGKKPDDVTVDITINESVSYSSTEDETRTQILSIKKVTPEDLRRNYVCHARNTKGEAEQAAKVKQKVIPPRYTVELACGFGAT
# T4: 细胞膜上的人IL1RAP (人, UniProt Q9NPH3 21-570)
# T4 sequence (looked up): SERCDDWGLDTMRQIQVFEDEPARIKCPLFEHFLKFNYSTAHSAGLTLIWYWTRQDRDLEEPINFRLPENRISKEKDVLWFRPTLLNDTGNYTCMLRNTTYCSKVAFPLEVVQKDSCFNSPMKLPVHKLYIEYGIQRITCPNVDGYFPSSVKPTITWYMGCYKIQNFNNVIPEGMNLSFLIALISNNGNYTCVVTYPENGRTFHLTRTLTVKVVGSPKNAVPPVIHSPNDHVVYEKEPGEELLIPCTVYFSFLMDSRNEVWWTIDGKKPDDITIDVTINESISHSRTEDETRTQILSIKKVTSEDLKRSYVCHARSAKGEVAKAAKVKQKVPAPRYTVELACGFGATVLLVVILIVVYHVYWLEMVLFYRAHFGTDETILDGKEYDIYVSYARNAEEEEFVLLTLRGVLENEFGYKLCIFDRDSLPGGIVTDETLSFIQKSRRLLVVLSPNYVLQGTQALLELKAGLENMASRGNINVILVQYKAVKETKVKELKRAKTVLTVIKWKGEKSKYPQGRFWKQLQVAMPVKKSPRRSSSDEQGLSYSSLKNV
# B1: h48D2 VH5:VL5 (antibody, human IgG1, kappa, L234A L235A)
# heavy: not shown
# light: APVLTQSPATLEASVGDRVTITCQASESISTALAWYQQKPGQPPKLLIYKASTLPSGVPSRFSGSGSGTEFTLTISDLESDDAATYYCQQGFSSGNVHNAFGGGTEVVVKRTVAAPSVFIFPPSDEQLKSGTASVVCLLNNFYPREAKVQWKVDNALQSGNSQESVTEQDSKDSTYSLSSTLTLSKADYEKHKVYACEVTHQGLSSPVTKSFNRGEC
# B2: h48D2 VH5.GL:VL5.GL (antibody, human IgG1, kappa, L234A L235A)
# heavy: not shown
# light: DIQMTQSPSTLSASVGDRVTITCQASESISTALAWYQQKPGQPPKLLIYKASTLPSGVPSRFSGSGSGTEFTLTISDLESDDAATYYCQQGFSSGNVHNAFGGGTEVVVKRTVAAPSVFIFPPSDEQLKSGTASVVCLLNNFYPREAKVQWKVDNALQSGNSQESVTEQDSKDSTYSLSSTLTLSKADYEKHKVYACEVTHQGLSSPVTKSFNRGEC
# notes: humanised and de-immunised variant
# B3: 嵌合48D2 (antibody, V domains shown)
# VH: QEQLEESGGGLVKPGGSLTLTCTVSGPSLSHFDITWVRQAPGSGLEWIGTISPGVSTYYASWAKSRSTITSNTNLNTVTLKMTSLTAADTATYFCARGGVGSSWKAFDLWGPGTLVTISS
# VL: APVLTQTPASVEVAVGGTVTIKCQASESISTALAWYQQKPGQPPKLLIYKASTLPSGVSSRFKGSGSGTEFALTISDLECDDAATYYCQQGFSSGNVHNAFGGGTEVVVK
# notes: chimeric rabbit/human IgG1; also called ch48D2; 48D2嵌合(ch)兔/人抗人IL1RAP
# B4: h48D2 VH5.GL:VL4 (antibody, human IgG1, kappa, L234A L235A, V domains shown)
# VH: QEQLEESGGGLVKPGGTLSLTCTVSGPSLSHFDITWIRQPPGKGLEWIGTISPGVSTYYASWAKSRVTISVDTSLNTVSLKLSSVTAADTATYFCARGGVGSSWKAFDLWGPGTLVTISS
# VL: ELVMTQSPSSVSASVGDRVTITCQASESISTALAWYQQKPGKAPKLLIYKASTLPSGVPSRFSGSGSGTDFTLTINSLQPEDFATYYCQQGFSSGNVHNAFGGGTKVEIKR
# notes: also called 48D2变体VH5.GL:VL4; 人源化和去免疫化48D2变体VH5.GL:VL4
# B5: h48D2 VH5:VL4 (antibody, human IgG1, kappa, L234A L235A, V domains shown)
# VH: QEQLEESGGGLVKPGGTLSLTCTVSGPSLSHFDITWIRQAPGSGLEWIGTISPGVSTYYASWAKSRVTISVDTSLNTVSLKLSSVTAADTATYFCARGGVGSSWKAFDLWGPGTLVTISS
# VL: ELVMTQSPSSVSASVGDRVTITCQASESISTALAWYQQKPGKAPKLLIYKASTLPSGVPSRFSGSGSGTDFTLTINSLQPEDFATYYCQQGFSSGNVHNAFGGGTKVEIKR
# notes: also called 人源化48D2变体VH5:VL4
# Columns and labels:
# 重组mfIL1RAP aa21-367 [1] = molecular target: T1, 重组mfIL1RAP aa21-367; experiment: binding ELISA, coated mfIL1RAP aa21-367
# 大鼠IL1RAP = molecular target: T2, 大鼠IL1RAP; experiment: ELISA on coated IL1RAP orthologs
# 小鼠IL1RAP = molecular target: T3, 小鼠IL1RAP; experiment: ELISA on coated IL1RAP orthologs
# 细胞膜上的人IL1RAP = molecular target: T4, 细胞膜上的人IL1RAP; experiment: cell-based or functional assay
# 重组mfIL1RAP aa21-367 [2] = molecular target: T1, 重组mfIL1RAP aa21-367; experiment: ELISA on coated IL1RAP orthologs
binder,measurement,setting,value
B1,binding result,重组mfIL1RAP aa21-367 [1],binds
B2,binding result,大鼠IL1RAP,no binding
same,binding result,小鼠IL1RAP,no binding
B3,"IC50, inhibition of IL-1α signalling, HEK-Blue assay (SEAP, OD 620nM)",细胞膜上的人IL1RAP,1.92 nM
same,"IC50, inhibition of IL-1β signalling, HEK-Blue assay (SEAP, OD 620nM)",细胞膜上的人IL1RAP,0.7 nM
same,"IC50, inhibition of IL-33 signalling, HEK-Blue assay (SEAP, OD 620nM)",细胞膜上的人IL1RAP,2.92 nM
same,"IC50, inhibition of IL-36α signalling, HEK-Blue assay (SEAP, OD 620nM)",细胞膜上的人IL1RAP,8.3 pM
same,"IC50, inhibition of IL-36β signalling, HEK-Blue assay (SEAP, OD 620nM)",细胞膜上的人IL1RAP,8.1 pM
same,"IC50, inhibition of IL-36γ signalling, HEK-Blue assay (SEAP, OD 620nM)",细胞膜上的人IL1RAP,0.0111 nM
same,binding result,大鼠IL1RAP,no binding (tested: 4000ng/ml)
same,binding result,重组mfIL1RAP aa21-367 [2],binds
same,binding result,小鼠IL1RAP,no binding (tested: 4000ng/ml)
B4,binding result,大鼠IL1RAP,no binding
same,binding result,小鼠IL1RAP,no binding
B5,binding result,重组mfIL1RAP aa21-367 [1],binds
